Experimental data from US20080081043A1 (published 2008).

Target: T1, human CD48 (full-length hCD48), on cells (human, UniProt P09326 27-220)
T1 construct: also called membrane-associated CD48
T1 sequence: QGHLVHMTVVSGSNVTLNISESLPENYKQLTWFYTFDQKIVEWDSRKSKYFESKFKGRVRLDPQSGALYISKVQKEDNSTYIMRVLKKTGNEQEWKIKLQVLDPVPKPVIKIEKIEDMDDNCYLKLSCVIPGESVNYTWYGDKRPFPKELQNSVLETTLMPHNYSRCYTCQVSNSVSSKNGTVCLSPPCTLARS
Test: not told at this place (summary sentence in the description)
Experimental: Equilibrium binding assays were performed on transiently expressed hCD48. Full-length hCD48 in the expression vector pDC409 was transfected into CV-1/EBNA cells and these cells were diluted 1:20 into a carrier cell (Daudi). Serial dilutions of NAIL-Fc in binding media (RPMI 1640), 2.5% bovine serum albumin, […] HEPES, 0.02% Na azide [pH 7.2]) were incubated with cells (combination of carrier cells and transiently expressed cells 2.5×10⁶ combined cells/well) for 2 hours at 4° C. in a total of […] in a 96-well microtiter plate. The plate was centrifuged and the supernatants were aspirated. One-hundred fifty microliters of ¹²⁵I goat anti-human IgG Fcγ (Jackson Immunoresearch Laboratories, Inc., West Grove, Pa.; cat #109-006-098) was added to each well and cells were incubated another 1 hour at 4° C. Free and bound probes were separated by the pthalate oil separation method, essentially as described (Dower et al., J.Immunol. 132:751-758, 1984). Goat anti-human IgG Fcγ was labeled with […] using solid phase chloramine T analog (Iodogen; Pierce Chemical, Rockford, Ill.) to a specific radioactivity of 2.11×10¹⁵ cpm/mmol. […] No binding of C1.7-Fc or CD48-Fc proteins could be detected on nontransfected cells.

Kd: ~0.1 nM
B1: NAIL-Fc polypeptide (soluble NAIL-Fc fusion protein) (Fc fusion)
chain: CQGSADHVVSISGVPLQLQPNSIQTKVDSIAWKKLLPSQNGFHHILKWENGSLPSNTSNDRFSFIVKNLSLLIKAAQQQDSGLYCLEVTSISGKVQTATFQVFVFDKVEKPRLQGQGKILDRGRCQVALSCLVSRDGNVSYAWYRGSKLIQTAGNLTYLDEEVDINGTHTYTCNVSNPVSWESHTLNLTQDCQNAHQEFRRSCDKTHTCPPCPAPEAEGAPSVFLFPPKPKDTLMISRTPEVTCVVVDVSHEDPEVKFNWYVDGVEVHNAKTKPREEQYNSTYRVVSVLTVLHQDWLNGKEYKCKVSNKALPAPIEKTISKAKGQPREPQVYTLPPSREEMTKNQVSLTCLVKGFYPSDIAVEWESNGQPENNYKTTPPVLDSDGSFFLYSKLTVDKSRWQQGNVFSCSVMHEALHNHYTQKSLSLSPGK
notes: also called C1.7-Fc; soluble NAIL polypeptide
